Results as given in article PMC3660597, “Investigation of Specificity Determinants in Bacterial tRNA-Guanine Transglycosylase Reveals Queuine, the Substrate of Its Eucaryotic Counterpart, as Inhibitor” (PLoS ONE, 2013).

Tested on: Tgt "wild type" (tRNA-guanine transglycosylase) (Zymomonas mobilis)
Assay: MST
Conditions: buffer, salt, pH and temperature not given in the material

With tRNATyr the Kd was 36.2 nM.
